Measured values published in paper PMC314469, “Protein Interaction Networks by Proteome Peptide Scanning” (PLoS Biology, 2004).

T1: amphyphisin SH3 (AMPH_HUMAN), P49418
T1 chain: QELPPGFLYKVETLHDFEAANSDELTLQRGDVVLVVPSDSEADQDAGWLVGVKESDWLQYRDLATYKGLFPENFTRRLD


Tests used:
[1] = target: T1, amphyphisin SH3 (AMPH_HUMAN), P49418; assay: SPOT array
[2] = target: endophilin SH3 (SH3G2_HUMAN), Q99962; assay: SPOT array

Binder	normalised SPOT signal, Boehringer light units (BLU); mean over the file's lines of this peptide [1]	normalised SPOT signal, Boehringer light units (BLU); mean over the file's lines of this peptide [2]
ESRDITRPSRPADL [Q9Y6Z1 10-23]	192	134
ETMYLRRPEGIERQ [Q9H5V9 75-88]	20.5	128
EVITLERPLRSNSS [Q9NRY7 86-99]	384	121
AGSSPRRPQGGSDA [Q96IQ9 293-306]	20.7	51.2
EYHRPAKPPPPPTG [BAC04960 97-111]	43.8	86
EVPDPNRPQRLGLH [O60275 1047-1060]	198	228
EVLELRRPMDSRLE [P78524 857-870]	43.8	34.9
EVPTPKRPRGRPKG [P17096 49-62]	36	41.8
FAPEFRRPKNIHLR [Q9UPW7 1021-1034]	41.6	204
ETSMLKRPVLLHLH [Q9UHE8 34-47]	79.9	440
ETSMLKRPVLLHLQ [Q9Y6U5 44-57]	16.4	182
ESQSPKRPPEDFET [Q16632 163-177]	42	49.5
ETNIPQRPSRPARR [Q9HBL3 239-252]	20700	1800
EVFFPPRPERVEHN [Q16530 104-117]	484	122
EVITLERPLRSSSS [O15162 171-184]	660	102
EYALPQRPPQGPED [BAC04305 7-21]	38.5	36.6

Binder	normalised SPOT signal, Boehringer light units (BLU); mean over the file's lines of this peptide [1]	normalised SPOT signal, Boehringer light units (BLU); mean over the file's lines of this peptide [2]
ETISPLRPQRPKSQ [Q14185 1731-1744]	4090	220
ETLTFKRPEGMHRE [Q9NPF5 43-56]	29.5	0
AGSDPKRPEMPSKK [P23470 686-699]	23.2	66.5
EWIVFRRPVPISYH [P23470 266-279]	95.2	557
ESSGPPRPSRGPAA [Q9UHD9 6-19]	2690	295
EVEMLPRPPKVTKE [P11532 250-263]	103	63
ESRDITRPSRPASY [O60298 756-769]	539	192
ESSRPVKPPKKDVP [O60885 322-336]	52.8	96.9
EVMILRRPSLQRRA [Q9ULT8 713-726]	236	2210
AGSSPGKPPRLVGG [P01034 24-38]	272	102
ETSGPERPPEKPRK [O75408 12-26]	38.5	926
EWASLLRPLRGREP [O94987 53-66]	308	170
EVDGLSRPQRPRPR [Q9HC10 643-656]	135	281
EVQPPVRPGKGGSV [Q9BXU7 105-118]	143	136
ETGALRRPQLLPLL [O60896 2-15]	39.4	127
